Laboratory results from US20130196383A1, “Method of Producing Dicer” (published 2013).

Experiments:
[1] = target: T1, hDcr-CΔRBD, hDcr-C lacking the C-terminal dsRBD (1235-1844), bacterially expressed (human, UniProt Q9UPY3 1235-1844); assay: complex formation; method not detailed
T1 construct: also called hDcr-CARBD
T1 sequence: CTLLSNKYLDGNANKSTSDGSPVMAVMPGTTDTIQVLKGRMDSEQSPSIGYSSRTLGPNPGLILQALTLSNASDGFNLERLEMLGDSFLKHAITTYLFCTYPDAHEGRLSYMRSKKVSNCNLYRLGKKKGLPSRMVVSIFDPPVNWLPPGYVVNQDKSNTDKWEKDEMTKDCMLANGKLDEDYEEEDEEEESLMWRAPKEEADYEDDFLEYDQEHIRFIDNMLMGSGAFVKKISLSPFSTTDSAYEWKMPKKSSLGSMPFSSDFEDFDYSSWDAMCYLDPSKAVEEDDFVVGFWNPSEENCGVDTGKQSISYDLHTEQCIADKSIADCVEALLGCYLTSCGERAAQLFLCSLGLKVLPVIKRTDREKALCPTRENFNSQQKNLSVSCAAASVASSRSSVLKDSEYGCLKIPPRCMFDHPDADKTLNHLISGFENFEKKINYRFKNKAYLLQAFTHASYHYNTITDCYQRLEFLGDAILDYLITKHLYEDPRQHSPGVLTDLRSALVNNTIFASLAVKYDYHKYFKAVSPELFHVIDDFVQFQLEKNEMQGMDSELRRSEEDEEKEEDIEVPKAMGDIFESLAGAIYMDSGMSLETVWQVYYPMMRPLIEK

[2] = target: T2, hDcr-C, C-terminal fragment of human Dicer (1235-1922), bacterially expressed (human, UniProt Q9UPY3 1235-1922); assay: size-exclusion chromatography after incubation without RNA
T2 construct: Expressed in E. coli from the pHMGWA-His6-MBP destination vector via pENTR/TEV/D-TOPO
T2 sequence: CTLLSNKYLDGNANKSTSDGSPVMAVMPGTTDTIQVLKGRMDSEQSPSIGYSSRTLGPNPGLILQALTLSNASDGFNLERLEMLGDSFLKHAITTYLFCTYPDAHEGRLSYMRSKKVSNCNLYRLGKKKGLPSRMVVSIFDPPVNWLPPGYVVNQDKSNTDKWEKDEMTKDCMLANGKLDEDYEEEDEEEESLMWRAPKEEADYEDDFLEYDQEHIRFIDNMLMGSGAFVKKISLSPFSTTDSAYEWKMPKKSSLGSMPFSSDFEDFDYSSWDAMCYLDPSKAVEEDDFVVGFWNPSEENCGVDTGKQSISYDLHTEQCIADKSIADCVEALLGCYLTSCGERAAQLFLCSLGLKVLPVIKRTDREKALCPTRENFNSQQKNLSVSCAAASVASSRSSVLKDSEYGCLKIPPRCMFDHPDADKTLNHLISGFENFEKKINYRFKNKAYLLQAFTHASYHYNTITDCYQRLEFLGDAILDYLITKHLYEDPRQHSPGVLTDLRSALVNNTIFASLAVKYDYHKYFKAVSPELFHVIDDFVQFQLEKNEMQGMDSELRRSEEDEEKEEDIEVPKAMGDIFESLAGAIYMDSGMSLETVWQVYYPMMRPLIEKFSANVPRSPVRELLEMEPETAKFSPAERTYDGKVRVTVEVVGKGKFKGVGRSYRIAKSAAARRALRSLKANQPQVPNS
Protocol: To assess the role of the PAZ domain in determining Dicer cleavage product length, an attempt was made to express the PAZ domain alone in E. coli. Although this was unsuccessful, a construct including both the PAZ domain and the adjacent DUF283 region yielded soluble protein (hereafter the tandem construct named DP, FIG. 2A). […] To test for a direct protein-protein interaction, hDcr-C and DP polypeptides were incubated together in the absence of RNA and then analyzed by size exclusion chromatography.
DP forms a stable complex with hDcr-C. A pre-incubated mixture of the hDcr-C fragment with 3-fold excess of DP was analyzed with a Superdex 200 size-exclusion column (top panel, elution profile).

- binding result [1]: binds
- binding result [2]: binds
B1: DP, tandem DUF283-PAZ domains of human Dicer (605-1068), bacterially expressed (other)
chain: MDDDDVFPPYVLRPDDGGPRVTINTAIGHINRYCARLPSDPFTHLAPKCRTRELPDGTFYSTLYLPINSPLRASIVGPPMSCVRLAERVVALICCEKLHKIGELDDHLMPVGKETVKYEEELDLHDEEETSVPGRPGSTKRRQCYPKAIPECLRDSYPRPDQPCYLYVIGMVLTTPLPDELNFRRRKLYPPEDTTRCFGILTAKPIPQIPHFPVYTRSGEVTISIELKKSGFMLSLQMLELITRLHQYIFSHILRLEKPALEFKPTDADSAYCVLPLNVVNDSSTLDIDFKFMEDIEKSEARIGIPSTKYTKETPFVFKLEDYQDAVIIPRYRNFDQPHRFYVADVYTDLTPLSKFPSPEYETFAEYYKTKYNLDLTNLNQPLLDVDHTSSRLNLLTPRHLNQKGKALPLSSAEKRKAKWESLQNKQILVPELCAIHPIPASLWRKAVCLPSILYRLHCLLTAE
notes: Expressed in E. coli from the pHMGWA-His6-MBP vector; also called middle domains of hDcr
